From patent US20250092406
Like-named read-outs stand apart in the source and are kept apart here.

Tests used:
[1] = molecular target: SARS-CoV-2 spike glycoprotein subunit 1 (S1) (SARS-CoV-2) (UniProt P0DTC2); test: BLI
TNF-alpha = TNF-alpha (UniProt P01375); test: BLI; details: SEQ 37 part DNA primer, selected region TNA 3'-2', 24 C, 2 mM CaCl2
[2] = SEQ 37 part DNA primer, selected region TNA 3'-2', all T = C5-indole carboxamide U (UTrp)
[3] = SEQ 37 part DNA primer, selected region TNA 3'-2', all T = C5-benzyl carboxamide U (UPhe)
[4] = all T = C5-benzyl carboxamide U (UPhe)
[5] = all T = C5-indole carboxamide U (UTrp)

Sequence of TNF-alpha (P01375 77-233): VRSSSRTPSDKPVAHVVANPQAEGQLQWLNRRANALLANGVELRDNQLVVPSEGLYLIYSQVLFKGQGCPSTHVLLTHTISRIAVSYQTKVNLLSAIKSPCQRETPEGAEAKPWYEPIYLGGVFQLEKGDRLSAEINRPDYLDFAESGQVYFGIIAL

GTCCCCTTGGGGATACCACCAAACTGTTGGGACTTGTAATGTCGTCATCAGCTAAGAGTC [S1 Trp entry 22]
Kd [1, 2]: 21.1 nM

GTCCCCTTGGGGATACCACCACGAGTAGGCCGCATTATGATGATTTAAACTGTTTCATGC [TNF Trp-3]
Kd (TNF-alpha; all T = C5-indole carboxamide U (UTrp), three replicates 16, 17, 27 nM): 20 nM

GTCCCCTTGGGGATACCACCACGATGGACTTGGGTAGCTAGTCAGGTTAGGCTGTTTGGA [S1 Phe entry 11]
Kd [1, 3]: 22.1 nM

GTCCCCTTGGGGATACCACCACTTTTGCTTGAGATTCGGCGCATTTCGTGCAGTGATGTA [TNF Phe entry 5]
Kd (TNF-alpha; [4]): 27 nM

GTCCCCTTGGGGATACCACCAGAACTTCGTCAGCGTCTTACCGAGTCCAAGGACTGGCTA [S1 Phe entry 12]
Kd [1, 3]: 28.8 nM

GTCCCCTTGGGGATACCACCAGAGCAAGTCATGATCGCGAGTTTAGCTTTTTCATTTCCC [TNF Phe entry 9]
Kd (TNF-alpha; [4]): 86 nM

GTCCCCTTGGGGATACCACCAGGCTTATGAAATCTTATGTGAACCGGGCATACGGGCGAT [S1 Phe entry 4]
Kd [1, 3]: 5.2 nM

GTCCCCTTGGGGATACCACCATCGAGTTGTGACGTTAACGATAATAGCCCGCTCCGATTC [S1 Phe entry 13]
Kd [1, 3]: 31 nM

GTCCCCTTGGGGATACCACCATTGTGCGAAGTATACATAGCAGATGCGTGACATAACAAG [S1 Trp entry 20]
Kd [1, 2]: 5.1 nM

GTCCCCTTGGGGATACCACCCGCGGCGTTGCGTAGCGCCAATCCTGCACAGAGGCGGGCG [TNF standard entry 3]
Kd (TNF-alpha; natural bases, R2 0.88): 141 nM

GTCCCCTTGGGGATACCACCCGTACAACTCCGGTTTCGGGCGGCCCGTTCTTCAGTTTGA [S1 Trp entry 18]
Kd [1, 2]: 2.7 nM

GTCCCCTTGGGGATACCACCCGTGCACGATCTAGCCAGTGCTCGCTTGAAATGGGCGCAG [S1 Standard-2]
Kd ([1]; SEQ 37 part DNA primer, selected region TNA 3'-2', natural bases): 34 nM

GTCCCCTTGGGGATACCACCCTTAGGTCGGCCTTTGACCATTCGTGCAAAACTTAGCGAA [TNF Phe entry 6]
Kd (TNF-alpha; [4]): 41 nM

GTCCCCTTGGGGATACCACCGAATGCGCTTGAGCGCGCCCGATGATATAGCGAACCAAGC [TNF Phe entry 7]
Kd (TNF-alpha; [4]): 54 nM

GTCCCCTTGGGGATACCACCGACGCTATGACTGGTATGGTGTGTGAGCTTCGAGGTCTGA [TNF Standard-2]
Kd (TNF-alpha; natural bases, three replicates 109, 76, 62 nM, approximate, poor curve fit): 82 nM

GTCCCCTTGGGGATACCACCGAGAGTCATAGTAGTTCACGGGTCTGCAGCTTACGCATGT [S1 Phe entry 6]
Kd [1, 3]: 11.3 nM

GTCCCCTTGGGGATACCACCGCGGCCAGATCCCCGATATGTTAACGTCCTTTTATGCGGG [TNA 913]
Kd ([1]; SEQ 37 part DNA primer, selected region TNA 3'-2', all T = C5-indole carboxamide U (UTrp; from doped Trp-1 library)): 0.85 nM

GTCCCCTTGGGGATACCACCGCGGGGGGTGTTGTGTAACTGTTTTTTGCCGGAAAGACGC [TNF standard entry 1]
Kd (TNF-alpha; natural bases, R2 0.88): 42 nM

GTCCCCTTGGGGATACCACCGGCACTATCGATTATCGTGCGCATTGGTTGTGTCCAGGCT [TNF Trp entry 10]
Kd (TNF-alpha; [5]): 7.3 nM

GTCCCCTTGGGGATACCACCGGTGTAATAAGGAGAGTACGTCGTTTGGTGGGACCGGGTA [S1 Phe entry 15]
Kd [1, 3]: 39 nM

GTCCCCTTGGGGATACCACCTAAGGAAAGGGGAGCGGGTAGGAGGTTCGTCGGGTGCGAC [S1 Trp entry 19]
Kd [1, 2]: 4.2 nM

GTCCCCTTGGGGATACCACCTACATTACGCGTTAGCGTTAATGGGTATGTCCGGACAGTG [S1 Phe entry 14]
Kd [1, 3]: 36 nM

GTCCCCTTGGGGATACCACCTATTGGAACTCCCGAGCAGGCTGTCCCATGGAAGACTACA [S1 Phe entry 3]
Kd [1, 3]: 2.6 nM

GTCCCCTTGGGGATACCACCTCACGTCTGTTGTACACTTGTGCAATGCAAGGACGGAAAA [TNF Trp entry 11]
Kd (TNF-alpha; [5]): 12 nM

GTCCCCTTGGGGATACCACCTGACACCTGGCACGAATGCGCAGACGACGTTGTTTTGCGT [TNF Phe entry 4]
Kd (TNF-alpha; [4]): 19 nM

GTCCCCTTGGGGATACCACCTGGCGAGGGGTAGTGAGCTGACGGATAGGGCTAGTGGAAC [S1 standard entry 1]
Kd ([1]; SEQ 37 part DNA primer, selected region alpha-L-threofuranosyl (TNA) 3'-2', natural bases): 17.6 nM

GTCCCCTTGGGGATACCACCTGTACGCCATATAGGCAGTCATCGAGCAACGAAGTAATGG [S1 Phe entry 9]
Kd [1, 3]: 16.7 nM

GTCCCCTTGGGGATACCACCTTAATTTTGAGATCTTTGTCGAGTTGCTCGGTGAAAAGTC [TNF Phe entry 8]
Kd (TNF-alpha; [4]): 70 nM

GTCCCCTTGGGGATACCACCTTAGTATTATTATGGGTGCGTGAGTTTCCAAGAAGCGCGT [TNA 949]
Kd ([1]; SEQ 37 part DNA primer, selected region TNA 3'-2', threomer base modification (side chain not stated, probably UTrp)): 0.7 nM

GTCCCCTTGGGGATACCACCTTGGCGAGATCCCCTATACGTGAGCTTCCTTTTATCCTTT [S1 Trp-1]
Kd [1]: 3.1 nM

GTCCCCTTGGGGATACCACCTTTCTATGCATCTCGGGGATGCGGGATATAAAAGAGAGAC [S1 Trp entry 23]
Kd [1, 2]: 29.1 nM
